Assay results reported in patent publication US20240409645A1 (DUALYX, published 2024).
Changes are numbered by the printed parent chain. Values belong to the binder of their own block, whether it stands above or below them.

Key:
[1] = molecular target: T1, human common cytokine receptor γ-chain (γc; IL-2Rγ; CD132), recombinant protein (human, UniProt P31785 23-262); assay: P.E. off-rate SPR
T1 construct: also called human IL-2R subunit CD132
T1 sequence: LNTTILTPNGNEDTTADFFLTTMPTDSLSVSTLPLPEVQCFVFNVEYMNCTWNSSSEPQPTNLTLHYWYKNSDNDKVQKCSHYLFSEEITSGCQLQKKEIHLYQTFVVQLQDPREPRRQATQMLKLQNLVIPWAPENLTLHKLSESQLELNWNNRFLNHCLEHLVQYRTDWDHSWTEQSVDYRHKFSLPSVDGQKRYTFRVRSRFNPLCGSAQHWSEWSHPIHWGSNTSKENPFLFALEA
Outline: (§1)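 First, the IL-2R protein is immobilised via amine coupling in acetate buffer to roughly 2500 RU on a CM5 sensor chip. Next, the VHH extract is loaded at 30 uL/min. Finally, dissociation is recorded for 120s.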

[2] = molecular target: T2, mouse IL-2Rγ, recombinant protein (mouse, UniProt P34902 23-263, limits assumed); assay: P.E. off-rate SPR
T2 sequence (looked up): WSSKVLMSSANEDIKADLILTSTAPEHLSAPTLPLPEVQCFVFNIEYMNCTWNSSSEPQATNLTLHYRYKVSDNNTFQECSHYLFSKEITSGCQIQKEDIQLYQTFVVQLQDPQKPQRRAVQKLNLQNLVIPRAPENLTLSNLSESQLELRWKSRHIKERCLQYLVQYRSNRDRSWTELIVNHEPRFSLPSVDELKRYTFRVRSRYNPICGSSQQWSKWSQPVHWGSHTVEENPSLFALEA
Outline: as §1

[3] = molecular target: T1, human common cytokine receptor γ-chain …; assay: P.E. binding ELISA
Outline: (§2)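 Human or mouse IL-2Rα, IL-2Rβ or IL-2Rγ protein coated directly overnight at 4° C, blocked with 4% Marvel/PBS for 1 hour.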

[4] = molecular target: T2, mouse IL-2Rγ, recombinant protein; assay: P.E. binding ELISA
Outline: as §2

[5] = molecular target: T1, human common cytokine receptor γ-chain …; assay: ELISA, bivalent VHH-hFc
Outline: (§3)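 Human and cyno receptor subunits coated at 1 μg/mL in PBS pH 7.4 overnight at 4° C, casein-blocked; test antibodies bound 1 h, detected with anti-human IgG Fc-HRP and TMB, A450 (ref 620 nm). EC50 from four-parameter variable-slope nonlinear fit of dose-response binding curves.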

[6] = molecular target: T3, cynomolgus monkey IL-2Rγ/CD132 subunit (cynomolgus monkey, UniProt A0A2K5VGJ6 23-262); assay: ELISA, bivalent VHH-hFc
T3 construct: also called Cyno IL-2R subunit
T3 sequence: T1 sequence with T14A, A16T, T22S, H141R, T228S
Outline: as §3

[7] = molecular target: T3, cynomolgus monkey IL-2Rγ/CD132 subunit; assay: ELISA, bivalent; EC50 cyno vs human subunit
Outline: as §3

koff [1]: 0.000333 s⁻¹
koff [2]: 0.00809 s⁻¹
OD450 nm [3]: 1.3 OD450 nm
OD450 nm [4]: 3.6 OD450 nm
B3: 34-MP04A12 VHH (periplasmic extract) (VHH)
VHH: QVQLVESGGGLVQAGSSLRLSCAASGRTLSRLAMGWFRQAPGKEREFVAVNSWGGDTFYADSVEGRFTYSRDNAKSAVYLQMNSLQPEDTAVYYCAAAPTSFATTAYSSSNSYAYWGQGAQVTVSS
notes: soluble VHH in periplasmic extract

EC50 [5]: 0.107 nM
EC50 [6]: 0.113 nM
Fold change [7]: 1.1 fold
B5: 28-MP04D02 VHH-hFc, monospecific bivalent (Fc fusion)
chain: QVQLVESGGGLVQAGGSLRLSCAASGRTLSRYAMGWFRQAPGKEREFVTANSWGGDTYYADSVQGRFTFSRDNAKNTVYLQMNSLQPEDTAVYYCAAAPTSFATTAYSGSNSYAYWGQGTQVTVSS
notes: IgG1 Fc LALA-PG; also called clone 28; not shown: human IgG1 CH2 and CH3 domains (Fc)

EC50 [5]: 0.131 nM
EC50 [6]: 0.147 nM
Fold change [7]: 1.1 fold
B9: 27-MP04G01 VHH-hFc, monospecific bivalent (Fc fusion)
chain: QVQLVESGGGLVQAGGSLTLSCAAPGRTFGTDVVGWFRQAPGKEREFVASISRSGDGIYYDDSVKGRFTISRNNAWNTVNLQMNSLKVEDTAVYYCAAGDGWSTYDYWGQGTQVTVSS
notes: IgG1 Fc LALA-PG; not shown: human IgG1 CH2 and CH3 domains (Fc)

The next lines start with the binder.

B1: 28-MP04D02 VHH (periplasmic extract) (VHH)
VHH: B5 chain
notes: as for B3
koff [1]: 0.0088 s⁻¹
koff [2]: 0.319 s⁻¹
OD450 nm [3]: 0.782 OD450 nm
OD450 nm [4]: 0.054 OD450 nm

B2: 36-MP07F02 VHH-hFc, monospecific bivalent (Fc fusion)
chain: B5 chain with K43S, T49A, N51S, Y58F, Q64E, T77A, V92A, A103P, G109S
notes: as for B9
EC50 [5]: 0.117 nM
EC50 [6]: 0.121 nM
Fold change [7]: 1 fold

B4: 37-MP07F09 VHH-hFc, monospecific bivalent (Fc fusion)
chain: B5 chain with F47Y, T49A, A50I, N51D, Y58F, Q64E, T77E, A97G, G109S, A114R
notes: as for B9
EC50 [5]: 0.137 nM
EC50 [6]: 0.141 nM
Fold change [7]: 1 fold

B6: 34-MP04A12 VHH-hFc, monospecific bivalent (Fc fusion)
chain: B3 VHH
notes: as for B9
EC50 [5]: 0.117 nM
EC50 [6]: 0.112 nM
Fold change [7]: 1 fold

B7: 38-MP07A11 VHH-hFc, monospecific bivalent (Fc fusion)
chain: QVQLVESGGGLVQAGGSLRLSCAASGRSLSRDAMGWFRQAPGKEREFVAVMSWGGDTFYTDSVEGRFTFSRDNAKNAVYLEMNDLQPEDTAVYYCAAAPTSFATTAYSSSNSYSYWGRGTQVTVSS
notes: as for B9
EC50 [5]: 0.113 nM
EC50 [6]: 0.133 nM
Fold change [7]: 1.2 fold

B8: 31-MP04E03 VHH (periplasmic extract) (VHH)
VHH: QVQLVESGGGLVQAGGSLRLSCTGYGGAFTGYALGWFRQAPGKEREFVARINWSGSFTYYASSVKGRFTISRDNAKNTMYLQMNNLKPEDTAVYYCAADNPSTLATDYDNWGQGTQVTVSS
notes: as for B3
koff [2]: 0.283 s⁻¹
OD450 nm [4]: 0.495 OD450 nm

B10: 29-MP04H02 VHH (periplasmic extract) (VHH)
VHH: QVQLVESGGGLVQAGGSLRLACVASGLTFDNYYMGWFRQAPGKEREFVAGIIWNGDHTAYADSIKGRFTISRDNAKNTAYLRMNSLKPEDTAVYYCAATFWIERATTPDIGQYAYWGQGTQVTVSS
notes: as for B3
koff [1]: 0.00625 s⁻¹
OD450 nm [3]: 0.157 OD450 nm

B11: 29-MP04H02 VHH-hFc, monospecific bivalent (Fc fusion)
chain: B10 VHH
notes: as for B9
EC50 [5]: 0.179 nM
EC50 [6]: 0.26 nM
Fold change [7]: 1.4 fold
